Results as given in patent publication US10648979B2, “Molecular probes for detecting gram-negative bacteria in vitro and in vivo” (priority 2014, dated 2020).
“Also recorded” adds a separate entry of the source. Bridge positions count the residues as written; N and C are the ends. Square brackets hold non-standard residues; d marks the D form. Peptide text beside a SMILES is read from it. * marks the point of attachment. ξ: configuration not given here. NBD = O=[N+]([O-])c1ccc(*)c2nonc12; dDab = NCC[C@@H](N)C(=O)O; Dab = NCC[C@H](N)C(=O)O; AEEA = NCCOCCOCC(=O)O; ξDab = NCCC(N)C(=O)O

How the values were obtained:
[1] = Rodent single dose intratracheal toxicity assessment; assay type: in vivo, Mice; parameters: Creatinine / Bilirubin / Albumin: unit not given here
[2] = tested on: panel of bacteria (Gram-negative and Gram-positive); assay: Flow cytometry of bacterial labelling; assay type: cell-based
Protocol: FIG. 7: NBD-UBIdend labels bacteria selectively over mammalian cells in vitro: A) Example images of a clinically relevant bacterial panel with NBD-UBIdend (5 μM; green) counterstained with the fluorescent generic cellular DNA dye Syto-82 (red) imaged by laser scanning confocal microscopy. B) Quantification of bacterial panel labelling NBD-UBIdend 5 μM (optimal concentration) where every bacteria in the panel is brighter when compared with MSSA and NBD-UBINle 10 μM (optimal concentration) C) Flow cytometry data with unstained bacteria (red), NBD-UBINle 15 μM (blue) and NBD-UBIdend 5 μM labelled bacteria (orange). […] Representative images shown, n≥3 for all experiments.
FIG. 8: NBD-PMX selectively labels Gram-negative bacteria in vitro. Example images of the bacterial panel with NBD-PMX imaged by laser scanning confocal microscopy. A) Bacterial panel with NBD-PMX 1 μM (green) and counterstain with syto-82 (red). […] C) Flow cytometric evaluation of bacterial labelling with NBD-PMX showing unstained bacteria (red) and NBD-PMX (blue) labelled bacteria. […] Representative images shown, n≥3 for all experiments.
Bacteria were prepared and counterstained with Syto 82 nucleic acid stain (Invitrogen, Calif., USA) in a shaking heat block at 37° C. and 350 rpm for 20 minutes. […] This was diluted to 500 uL and analysed using BD FACS Calibur using FL-1 and FL-2 channels, with 10,000 events. […]

bacterial panel = assay: Retention of labelling upon wash-off (PBS wash) in vitro by confocal; assay type: cell-based
Source text: FIG. 15: NBD-UBIdend retains fluorescence when wash performed. A) The bacterial panel was imaged by laser scanning confocal microscopy in the continued presence of NBD-UBIdend (black) and following PBS wash (white).
In the distal lung, there is likely to be significant and rapid dissipation of the probes immediately after delivery. Therefore, it is imperative that probe-bacterial labelling remains persistent under these conditions. […] As such, this resistance to ‘wash-off’ represents a surrogate indicator of probe-bacterial affinity which appears to be an absolute requirement for distal lung in situ labelling.
We have obtained evidence that the wash-off properties of the probes, most likely related to affinity and/or the nature of subsequent insertion into the bacterial membrane, impact on whether or not they can be used to successfully image in the lung. The retention of labelling upon removal of probe solution was investigated in vitro by confocal. With all of the linear UBI variants labelling was lost completely upon wash-off. […] Bacteria were pre-labelled with these linear NBD-UBINle compounds and successful labelling was confirmed by imaging the bacterial suspension pre-instillation.

A549 cells = assay: Labelling of A549 cells (confocal); assay type: cell-based, human
Protocol: All compounds have undergone biological assessment.
A549 cells were grown in Dulbecco's modified Eagle's medium (DMEM) supplemented with 10% fetal bovine serum (FBS), 2 mM L-glutamine, 100 units/mL penicillin G and 100 μg/mL streptomycin to 80% confluence. Cells were dispersed with Trypsin-EDTA and seeded onto glass coverslips or 8 well confocal imaging chambers and grown to confluence in the presence of DMEM.
Bacteria were prepared and counterstained with Syto 82 nucleic acid stain (Invitrogen, Calif., USA) in a shaking heat block at 37° C. and 350 rpm for 20 minutes. They were co-incubated with the probe at required concentration in a sealed POC mini chamber, or 8 well confocal chamber. When required the glass coverslip for the POC chamber was coated in fibronectin (for neutrophil experiments) or poly-d-lysine (for bacteria and cell lines) and incubated with cells with one hour at 37° C. to allow adherence prior to bacterial innoculation. Analysis was with ImageJ. Briefly, the Syto channel was automatically thresholded (Huang) and an ROI generated from this. The mean fluorescence intensity on the probe channel within this ROI was quantified. Data presented represents the mean of three separate fields of view.

[3] = tested on: bacteria on human lung tissue; assay: Detection of bacteria in the presence of human lung tissue autofluorescence (FCFM, confocal, FLIM); details: FCFM and benchtop confocal
Source text: FIG. 21: Bacteria detected in the presence of human lung tissue autofluorescence. […] B) Live confocal microscopy images (merge) showing merge images of nucleic acid counterstain (red) with no NBD-PMX labelling. Bacteria in right panel can be clearly seen, labelled with NBD-PMX and above the background fluorescence.
FIG. 24: Fluorescence Life Time Imaging easily distinguishes lung tissue from bacteria. […] Imaging performed using NBD-UBIdend and S. aureus on human lung tissue.

CC(C)C[C@@H]1NC(=O)[C@@H](Cc2ccccc2)NC(=O)[C@@H](CCN)NC(=O)C(NC(=O)[C@H](CCN)NC(=O)[C@@H](NC(=O)COCCOCCNc2ccc([N+](=O)[O-])c3nonc23)[C@@H](C)O)CCNC(=O)[C@@H]([C@H](C)O)NC(=O)[C@H](CCN)NC(=O)[C@H](CCN)NC1=O (some centres unmarked) [NBD-PMX] ({NBD-AEEA}-T[Dab][ξDab][dDab][dF]L[Dab][Dab][dT]; lactam 3-C)
ALP ([1]; 48 hours): 107.7 ± 17.3 u/l | ALT ([1]; 48 hours): 36.0 ± 9.0 u/l | Albumin ([1]; 48 hours): 23.7 ± 0.3 | BALF ([1]; 48 hours): 509.0 ± 270.2 Cells/ul | Bilirubin ([1]; 48 hours): 1.2 ± 0.4 | Creatinine ([1]; 48 hours): 16.3 ± 8.8 | Cytospin (% of Neutrophils) ([1]; 48 hours): 0% | Cytospin (% of Red Blood Cells) ([1]; 48 hours): 3.9% | PenH value ([1]; 48 hours): 0.5 ± 0.05 | Cytospin (% of Mononuclear cells) ([1]; 48 hours, single intratracheal 100 μg/25 g mouse): 96.1% | ALP ([1]; 14 days): 126.3 ± 8.5 u/l | ALT ([1]; 14 days): 40.3 ± 4.8 u/l | Albumin ([1]; 14 days): 25.3 ± 0.7 | BALF ([1]; 14 days): 542.0 ± 84.7 Cells/ul | Bilirubin ([1]; 14 days): 1.2 ± 0.4 | Creatinine ([1]; 14 days): 9.7 ± 0.3 | Cytospin (% of Neutrophils) ([1]; 14 days): 0% | Cytospin (% of Red Blood Cells) ([1]; 14 days): 2.3% | PenH value ([1]; 14 days): 0.5 ± 0.07 | Cytospin (% of Mononuclear cells) ([1]; 14 days, single intratracheal 100 μg/25 g mouse): 93.0% | organ toxicity (histology) ([1]; single instillation, 48 hours and 14 days, compared to PBS control): no organ toxicity | toxicity ([1]; single intratracheal 100 μg/25 g mouse, 48 hours and 14 days): no toxicity | labelling of Gram-positive bacteria by flow cytometry [2]: No significant labelling of Gram-positive bacteria | retention of labelling upon wash-off (bacterial panel): resistant to wash-off | labelling of A549 cells (A549 cells): retains selectivity of labeling over mammalian cells; also recorded: no labelling of human neutrophils or A549 cells | detection of bacteria above human lung autofluorescence [3]: demonstrating bacterial signal
